Values of other authors as cited in patent US20040126825A1, “Methods of screening and using inhibitors of angiogenesis” (Allergan, Inc, priority 2001, published 2004).

System: MMP-2
Details: cultured breast carcinoma cells; Deryugina et al. 2001

Substance: vitronectin: a specific ligand of αvβ3
- activation of MMP-2 (conversion from pro-form to active form): inhibited
